The record followed here is paper PMC3237570.

In the assay the target is Bbox1 domain of MID1. Put plainly: NMR titration; 1H-15N HSQC at 21°C, aqueous solution; 0.15 mM unlabeled alpha45 added to 0.3 mM 15N-labeled Bbox1 (Bbox1 to alpha45 1:0.5).

What is called stoichiometry N is the number of molecules, sites or subunits per partner or assembly. Substance “alpha45 (45-amino acid region of the C-terminus of alpha4, residues Glu236 to Leu280) (from UniProt P78318 236-280) (domain or fragment)” showed a percent of Bbox1 bound to alpha45 (at 1:0.5) of 40 to 50% and a stoichiometry N of 1.
